Data published in patent publication US8314210B2, “Compositions and methods for the generation of MHC class II compounds by peptide exchange” (priority 2002, dated 2012).
Peptide text beside a SMILES is read from it. * marks the point of attachment. Dnp = O=[N+]([O-])c1ccc(*)c([N+](=O)[O-])c1; Ahx = NCCCCCC(=O)O

Tests used:
Format in all cases: binding
HLA-DR4 (DRA, DRB1*0401) = target: T1, HLA-DR4 (DRA, DRB1*0401) (Homo sapiens, UniProt P01903+P01911, A100K/A169T/F76Y/I96L/K127E/L162R/M171V/N62H/P40V/Q125Y/R42H/S133A/S149N/S66Y/V115G/V209L/W38E); assay: biochemical; conditions: Table 2, DRB1*0401, read-out: (μM) [head prints unit only
T1 construct: were attached to the 3′ end of the DRα and DRβ ectodomains; CLIP peptide […]; made in house

DRB1*0401 = target: T2, DRB1*0401 (Homo sapiens, UniProt P01903+P01911, A100K/A169T/F76Y/I96L/K127E/L162R/M171V/N62H/P40V/Q125Y/R42H/S133A/S149N/S66Y/V115G/V209L/W38E); conditions: 3.3 μM *DR/CLIP, 50 μM DNP-labeled peptide, pH 5.2, overnight 30° C.
T2 construct: were attached to the 3′ end of the DRα and DRβ ectodomains; CLIP peptide […]; made in house

DR4 = target: T3, DR4 (Homo sapiens, UniProt P01903+P01911, A100K/A169T/F76Y/I96L/K127E/L162R/M171V/N62H/P40V/Q125Y/R42H/S133A/S149N/S66Y/V115G/V209L/W38E); assay: Kinetics of CLIP dissociation and peptide association; conditions: DR4, pH 5.2
T3 construct: CLIP peptide […]; made in house

DR4 (DRA, DRB1*0401) = target: T4, DR4 (DRA, DRB1*0401) (Homo sapiens, UniProt P01903+P01911, A100K/A169T/F76Y/I96L/K127E/L162R/M171V/N62H/P40V/Q125Y/R42H/S133A/S149N/S66Y/V115G/V209L/W38E); assay: Competition assay of HCV peptides, biotinylated HA (306-318) on thrombin-cleaved DR4/CLIP; conditions: competitor 30 nM to 10 μM vs 30 nM labeled HA peptide
T4 construct: were attached to the 3′ end of the DRα and DRβ ectodomains; CLIP peptide […]; made in house

CC[C@H](C)[C@H](NC(=O)[C@H](CC(N)=O)NC(=O)[C@H](CCCCN)NC(=O)[C@H](Cc1ccccc1)NC(=O)[C@H](Cc1ccccc1)NC(=O)[C@H](Cc1c[nH]cn1)NC(=O)[C@@H](NC(=O)[C@@H](NC(=O)CCCCCNc1ccc([N+](=O)[O-])cc1[N+](=O)[O-])C(C)C)C(C)C)C(=O)N[C@H](C(=O)N[C@H](C(=O)N1CCC[C@H]1C(=O)N[C@@H](CCCNC(=N)N)C(=O)N[C@H](C(=O)N1CCC[C@H]1C(=O)N1CCC[C@H]1C(=O)O)[C@@H](C)O)[C@@H](C)O)C(C)C [MBP(88-102)] ({Dnp-Ahx}-VVHFFKNIVTPRTPP-OH)
IC50 (HLA-DR4 (DRA, DRB1*0401)): 0.3 µM

CC[C@H](C)[C@H](NC(=O)[C@H](CCC(N)=O)NC(=O)[C@H](CCC(=O)O)NC(=O)CCCCCNc1ccc([N+](=O)[O-])cc1[N+](=O)[O-])C(=O)NCC(=O)N[C@@H](Cc1c[nH]c2ccccc12)C(=O)N[C@@H](CCSC)C(=O)N[C@H](C(=O)N[C@@H](CC(N)=O)C(=O)N[C@@H](CC(N)=O)C(=O)N1CCC[C@H]1C(=O)N1CCC[C@H]1C(=O)N[C@H](C(=O)N1CCC[C@H]1C(=O)N[C@H](C(=O)NCC(=O)O)C(C)C)[C@@H](C)CC)[C@@H](C)O [p24 (113-127)] ({Dnp-Ahx}-EQIGWMTNNPPIPVG-OH; C-terminus assumed)
Loading Efficiency (%) (DRB1*0401): 79%

CC[C@H](C)[C@H](NC(=O)[C@H](CO)NC(=O)[C@@H](NC(=O)[C@@H]1CCCN1C(=O)[C@H](CO)NC(=O)[C@H](Cc1ccc(O)cc1)NC(=O)[C@H](CCSC)NC(=O)[C@H](CCCNC(=N)N)NC(=O)[C@@H](NC(=O)[C@@H](NC(=O)[C@H](CCCCN)NC(=O)[C@H](CC(N)=O)NC(=O)[C@H](CC(C)C)NC(=O)CCCCCNc1ccc([N+](=O)[O-])cc1[N+](=O)[O-])[C@@H](C)CC)C(C)C)C(C)C)C(=O)O [p24 (138-150)/Val] ({Dnp-Ahx}-LNKIVRMYSPVSI-OH; C-terminus assumed)
Loading Efficiency (%) (DRB1*0401): 90%

CGGGPVSKMRMATPLLMQA [Alexa-488 labeled CLIP peptide]
time by which almost all of the bound CLIP peptide had dissociated (DR4): ≤ 30 min

aa 1241-1260: HCV peptide aa 1241-1260 tested for DR4 binding, printed with SEQ ID NO:19 (GYKVLVLNPSVAATL; listed as Homo sapiens)
binding to DR4 (DR4 (DRA, DRB1*0401)): bound to DR4

aa 1581-1600: HCV peptide aa 1581-1600 tested for DR4 binding, printed with SEQ ID NO:20
binding to DR4 (DR4 (DRA, DRB1*0401)): bound to DR4

aa 1771-1790: HCV peptide aa 1771-1790 tested for DR4 binding, printed with SEQ ID NO:21 (SGIQYLAGLSTLPGNPAIASL; listed as Homo sapiens)
binding to DR4 (DR4 (DRA, DRB1*0401)): bound to DR4
